{"source": "paper PMC3069017", "about": "(Molecular Biology of the Cell, 2011)", "biological_target": "T1, GST-IFT54 (mouse, UniProt Q149C2 1-625)", "T1 sequence (looked up)": "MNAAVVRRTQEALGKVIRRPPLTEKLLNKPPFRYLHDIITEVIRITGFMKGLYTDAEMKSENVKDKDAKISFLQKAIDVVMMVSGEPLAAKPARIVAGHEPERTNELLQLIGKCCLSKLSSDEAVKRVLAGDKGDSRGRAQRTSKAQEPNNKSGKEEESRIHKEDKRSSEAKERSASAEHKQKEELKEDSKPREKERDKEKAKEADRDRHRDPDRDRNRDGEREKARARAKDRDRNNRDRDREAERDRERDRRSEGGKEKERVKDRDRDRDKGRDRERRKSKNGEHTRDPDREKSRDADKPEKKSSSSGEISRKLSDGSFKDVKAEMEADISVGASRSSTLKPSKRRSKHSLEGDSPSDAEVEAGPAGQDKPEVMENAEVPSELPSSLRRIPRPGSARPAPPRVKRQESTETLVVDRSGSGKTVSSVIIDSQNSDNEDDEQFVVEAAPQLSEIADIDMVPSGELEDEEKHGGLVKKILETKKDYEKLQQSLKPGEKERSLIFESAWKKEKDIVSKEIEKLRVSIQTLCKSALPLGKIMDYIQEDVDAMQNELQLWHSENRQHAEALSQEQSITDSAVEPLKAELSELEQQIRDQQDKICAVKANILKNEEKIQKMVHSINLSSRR", "experiment": "pull-down", "data": [{"binder": "purified, untagged IFT20 (natural protein, mouse, UniProt Q61025-1 1-132, looked up) MAKDILGEAGLHFDELNKLRVLDPEVTQQTVELKEECKDFVDKIGQFQKIVGGLIELVDQLAKEAENEKMKAIGARNLLKSIAKQREAQQQQLQALIAEKKTQLERYRVEYEALCKVEAEQNEFIDQFIFQK", "values": [{"measurement": "binding result", "value": "binds"}]}]}
